Test results taken from the DeepSol protein solubility set.

assay: soluble on expression in E. coli; label from the status in PepcDB or PDB records

Sequence	soluble on expression in E. coli
MTIAQEPTALNFECETGNYHTFCPISCVAWLYQKIEDSFFLVIGTKTCGYFLQNAMGVMIFAEPRYAMAELEEGDISAQLNDYAELKRLCEQIKRDRNPSVIVWIGTCTTEIIKMDLEGLAPKLEGEIGIPIVVARANGLDYAFTQGEDTVLAAMAHRCPDKAPVAEAEKNLEHHHHHH	soluble
MTIAVSPQALPALVLNADYRPLSYYPLSLWSWQDAIKAVFLDRVNIIAEYDHAVSSPSFSMRLPSVVSLKTYVQPIRNPAFTRFNVFLRDKFECQYCGTRDELTFDHVIPRAHGGETTWHNVVAACSPCNLRKGSKLPKQAGMFPAQKPFQPTVQDLHNNGRLFPPNYLHESWMDYLYWDTELQPLEHHHHHH	not soluble
MTIEDTVIKLIGSLKDPLLDLTGKEMNLQYKITTSNQAMHVVLTAGYPTSLLETSYKPIVQKIVQDEFPNYQVTISIQQFIKAHKTQLTGKALRGVKNTIAVASGKGGVGKSTVTVNLAAALAKLGARVGILDADIYGPSIPLMLGETKPVQVKDNCYIPVEAHGMQAMSIGYLTDTNQALIWRGPMLAKSLIQMLDITLWNELDYLFIDLPPGTGDIQLTLVQKIPLTSAIVVTTPQNVATLDAQKAITMFSRTGIDVLGIIENMSTHICSHCGHQEAIFGRGGAAALCDAYQCTLLGQLPLDSHVRRHCDEGVPTATHSSNQLTDTFIKTAMRTAIELSKKPINYADRFPKIVVEAAALEHHHHHH	soluble
MTIIKLERRDVRLLLLYEFRLGHSAMEAERNICGAMGEGALSYNTAKSWFQKFKNGDFSLEEIERSGRPVELNEEDLVKLVEEEPRLSLREMEEKLECCHSTIPRHLGRLGFTSKLGTWVPHELSASQKLTRVNVCTQLLTFRRKFDWLNNLVTGDEKWVLYVNHSRKRQWLPIGEKGIPTPKPDLHPKKIMICV	soluble
MTIKSDKWIRRMAQEHGMIEPFVERQVRGADDSRVISYGVSSYGYDVRCAAEFKVFTNIHSAVVDPKNFDEKSFVDINSDVCIIPPNSFALARTVEYFRIPRDVLTICLGKSTYARCGIIVNVTPLEPEWEGHVTLEFSNTTNLPAKIYANEGVAQMLFLQSDEACEVSYKDRGGKYQGQR	soluble
MTISNSNLLKPFITGTELPPFKEDVFSKTEEQFKKSTYGKSLFISGNENLVNISAEKIDEIKNSKNFFSNIVNIIILLIKHPDKILPILHGCPVESIEVIKNAKRTGQWSYEMTDKNGQSIEVSYIFTDTIDDKSDGKLCLKICNSCNQNDSSTHEYKIDHQQLKNHIRQLEEWALLEKFYDNNAYYSKRTKQLEKKIADAGFITRKVKAENFNVKEFKDDIASMLCEQPPMRTHQISSSGYVSADKLHKLYKTNLEDAQRDLKTTPVDIDGVSLKSITREKIAEEIAKKTAEIIAKQNAKSIEEKNIEKNKKQTNSEDNFVLKFSPEEINEMLLDYSDEEQKKLRPFFTSDHIYCLFDAFSQGLHNVARNGSPRYAGLLRQIASKSAILQDFDQQLFWRTFTGGVLHRHISVKSEPEKTDVWRFSSQFDFPHINENGELSRTVLMFEGVAESNFKDIANHSSECFSYRCYAAPLDANAKK	soluble
MTIVIGFEGSANKIGIGIIKDGEVLSNPRRTYITPPGQGFLPGETAKHHRSVILTVLQEALDEAGLKAADIDCVAYTKGPGMGAPLVTVAIVARTVAQLWGKPLLGVNHCIGHIEMGRLITNAQNPTVLYVSGGNTQVIAYSERRYRIFGETIDIAVGNCLDRFARVIKISNDPSPGYNIEQMAKKGNKYIELPYTVKGMDVSFSGILSYIEDAAHKMLSTDQCTPEDLCFSLQETVFAMLVEITERAMAHCGSQEVLIVGGVGCNLRLQEMMGVMCKERGARLFATDESFCIDNGAMIAQAGWEMFRSGHVTELPDSWITQRYRTDEVEVTWRD	soluble
MTIYPKLILDALATVRYPGTGKNLVEAGMVEDNIRIEGMKVSFSLIFEKPTDPFMKSVIKAAETAILTHVGKEVEIVGNISVKTVQAARPEVGKLLPHVKNIIGISSGKGGVGKSTVSANLAVALAKLGYKVGLLDADVFGPSMPKMFQVEDARPYAEKIDGRDMIIPVEKYGVKLLSIGFFVDPDQATLWRGGMASNALKQLIGDAAWGDLDYFLIDLPPGTSDIHLTVVQTLALTGAVVVSTPQAVALADARKGINMFTNDKVNVPILGLVENMAWFTPAELPENKYYLFGKEGAKKLAEEMNVPLLGQIPIVQSICEGGDKGTPVALDENTVTGRAFLALAASVVRQVDKRNVEMAPTKIVELHKLEHHHHHH	soluble
MTKEVLIHQIIDVLARAGFALSDRCNIRPRSFDVAARKDDTLLLCKVLFNIDGLNEETAREMKYLAEYLGGSAIVVGAKTRDQMLEDSVVYMRYDILALSVQTLYDYFVENIRPLVSAAPGGLYVSIEGDLLKKARTTQSMSLGTLASMVGVSRRTISKYEEEGMDASIDVVLHLEDIFGVELAKPIDILKSCGSRKPRKKAEPEKEEPKGKPGTLLPEDLILNTISMLGYDVLPTAQAPFKAISRDKSSVILTGVSEFNTTVIKRAHLMSSISCITETQSVFIINGRSKLKSVENTVLIEKKELDTISDSQELLDFIEERKDTHEA	not soluble
MTKKQKEILFCDYFEEWVEVYKVGAIAKITLAKYYNAAKQLRDLCPKLFISDFDRREYQRIINVYAETHEKQTVKDFHHHVKACIKDLFHDGLIDKDPTYRVVIKGAELEHHHHHH	soluble
MTKLHDISEHEKAIDFSIYLDSLPQYQHLASQDESHRHRALGIYSDFLSEENKSKRAALQNYKNYISLTERDPNQLAYPELQETRIDAVFSPDFMGSFAKSNGRHEETPMDGPGGYDMRSYLPYQTAPSGSLGNISTASSSCSSPPGTPAPSGKGRSPQAGGKMTSSGKGKKRLDKDSDEYRQRRERNNLAVRKSRDKAKMRNLETQHKVLELAAENDRLQKRVEQLSRELATLRNLLSATGQC	not soluble
MTKLQLKYRELKIISVIAASENISHAATVLGIAQANVSKYLADFESKVGLKVFDRTTRQLMLTPFGTALLPYINDMLDRNEQLNNFIADYKHEKRGRVTIYAPTGIITYLSKHVIDKIKDIGDITLSLKTCNLERNAFYEGVEFPDDCDVLISYAPPKDESLVASFITQYAVTAYASQRYLEKHPISRPDELEHHSCILIDSMMIDDANIWRFNVAGSKEVRDYRVKGNYVCDNTQSALELARNHLGIVFAPDKSVQSDLQDGTLVPCFQQPYEWWLDLVAIFRKREYQPWRVQYVLDEMLREIRHQLAQSQQLRPEQAAESED	soluble
MTKPLVIFGSGDIAQLAHYYFTRDSEYEVVAFTVDRDYASVSEFCGLPLVAFDEVAQRFPPESHAMFVALAYAKLNGVRKEKYLAAKALGYELASYVSSHATVLNDGRIGENVFLLEDNTIQPFVSIGNNVTLWSGNHIGHHSTIHDHCFLASHIVVSGGVVIEEQSFIGVNATLRDHITIGSRCVVGAGALEHHHHHH	not soluble
MTKRKNASNAGSSPKKEKKSETFAALKSVKAEKRPAADSSDSEPEDFEEEQITHTEAEETRNEDNGQAIYEPDVMRPLIESFLEFLVQRQSETSTVHNMENKVAEWAETRRDDNIDAGLFVLDFRKYLKSAVKFKNLQMNDSCAAISTYLNSEKSLVEYKSMPDRPPTKIQLYIKKHQIMLKGIGGEPMKNAYKAMNADTEGAKELDELLREASLQYIPQLQEFLDTHPNLTEEQKRSIVNKMKMLNKKYNSKEISSTPKKRSSKKDPETAFSLFCRTKNDKYRDLSDEEREIKLQKKFEKLPAAQKDIYESLAISM	soluble
MTKRNTPQRRHNILALLNEQGEVSVDDLARRFETSEVTIRKDLAALETNGLLLRRYGGAIPLPHELISESSQPVSRYKKAIARAAVSRIREHARIIVDSGSTTAALIPELGQQPGLVVMTNSLHVARALTDLEHEPVLLMTGGTWDPHSESFQGQVAEQVLRSYDFDQLFIGADGIDLIRGTTTFNELLGLSRVMAEVAREVVVMVEADKVGRKIPNLELPWSSIHTLITDDRLPVEARDQIQARGINLICAAVSLEHHHHHH	not soluble
MTLDLDNMTQAEFDEVMAEIQLQSPNIFQLISDFVNKKVTSVEIDDLLNMKRAETGKALSPLQIQELQYMLEDFSPELIHEALKEAVSQGKANFAYIKVILNRWKQDNLLTVELVRNSRAAREAKKQQTNQLEPTSYEDWIPTQEKPF	not soluble
